T1: EsCas13d, nuclease-dead (Eubacterium siraeum, UniProt B0MS50, R295A;H300A;R849A;H854A)
T1 sequence: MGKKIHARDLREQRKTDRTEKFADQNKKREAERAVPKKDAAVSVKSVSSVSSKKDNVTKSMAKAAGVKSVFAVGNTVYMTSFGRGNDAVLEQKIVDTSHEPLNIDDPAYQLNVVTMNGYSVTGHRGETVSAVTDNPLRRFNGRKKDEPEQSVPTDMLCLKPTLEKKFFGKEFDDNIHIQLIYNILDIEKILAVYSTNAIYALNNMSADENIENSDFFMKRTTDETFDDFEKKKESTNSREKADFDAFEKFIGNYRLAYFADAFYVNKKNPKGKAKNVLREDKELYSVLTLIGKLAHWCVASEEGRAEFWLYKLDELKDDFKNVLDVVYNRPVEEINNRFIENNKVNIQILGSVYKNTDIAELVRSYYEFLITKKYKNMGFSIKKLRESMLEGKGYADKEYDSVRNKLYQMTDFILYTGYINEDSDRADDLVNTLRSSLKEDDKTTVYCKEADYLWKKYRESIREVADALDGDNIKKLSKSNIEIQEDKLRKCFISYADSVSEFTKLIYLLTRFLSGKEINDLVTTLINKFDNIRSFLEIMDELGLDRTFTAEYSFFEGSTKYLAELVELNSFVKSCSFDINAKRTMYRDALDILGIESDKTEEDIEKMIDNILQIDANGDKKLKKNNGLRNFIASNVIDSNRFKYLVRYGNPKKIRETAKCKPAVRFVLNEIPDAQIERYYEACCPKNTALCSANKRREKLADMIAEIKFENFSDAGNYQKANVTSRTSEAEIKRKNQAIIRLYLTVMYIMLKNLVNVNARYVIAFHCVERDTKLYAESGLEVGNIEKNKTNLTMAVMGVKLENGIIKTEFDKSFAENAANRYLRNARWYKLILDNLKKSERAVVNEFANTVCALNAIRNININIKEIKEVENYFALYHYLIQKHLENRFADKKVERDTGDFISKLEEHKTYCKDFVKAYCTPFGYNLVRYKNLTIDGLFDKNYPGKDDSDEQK

B1: target 1 C2A,A14G (mixed)
RNA 1: CACCCGUGCAAAAAUGCAGGGGUCUAAAACUGAGCGGAUAACCUCUCUAUGG
RNA 2: GGGAAUGGAUCCACAUCUACGAAUUCGUACCAUAGAGGGGUUAUCCGCUAACCGAGAUCGGAAGAGCACACGU
B2: target 1 A9G,U10C (mixed)
RNA 1: CACCCGUGCAAAAAUGCAGGGGUCUAAAACUGAGCGGAUAACCUCUCUAUGG
RNA 2: GGGAAUGGAUCCACAUCUACGAAUUCGUACCAUAGAGAGGUCGUCCGCUCACCGAGAUCGGAAGAGCACACGU
B3: target 3 U21A (mixed)
RNA 1: CACCCGUGCAAAAUUGCAGGGGUCUAAAACGACCUGAAUAUUUCAGAUCAAA
RNA 2: GGGAAUGGAUCCACAUCUACGAAUUCGUUUAUGAUCUGAAAUAUUCAGGUCUGCAGAUCGGAAGAGCACACGU
B4: target 3 C6A,A11C (mixed)
RNA 1: CACCCGUGCAAAAUUGCAGGGGUCUAAAACGACCUGAAUAUUUCAGAUCAAA
RNA 2: GGGAAUGGAUCCACAUCUACGAAUUCGUUUUUGAUCUGAACUAUUAAGGUCUGCAGAUCGGAAGAGCACACGU
B5: target 3 G4A,C6U (mixed)
RNA 1: CACCCGUGCAAAAUUGCAGGGGUCUAAAACGACCUGAAUAUUUCAGAUCAAA
RNA 2: GGGAAUGGAUCCACAUCUACGAAUUCGUUUUUGAUCUGAAAUAUUUAAGUCUGCAGAUCGGAAGAGCACACGU
B6: target 3 del1,del14 (mixed)
RNA 1: CACCCGUGCAAAAUUGCAGGGGUCUAAAACGACCUGAAUAUUUCAGAUCAAA
RNA 2: GGGAAUGGAUCCACAUCUACGAAUUCGUUUUUGAUCUAAAUAUUCAGGUUGCAGAUCGGAAGAGCACACGU
B7: target 3 insC 3' of 20,insA 3' of 6 (mixed)
RNA 1: CACCCGUGCAAAAUUGCAGGGGUCUAAAACGACCUGAAUAUUUCAGAUCAAA
RNA 2: GGGAAUGGAUCCACAUCUACGAAUUCGUUUUUCGAUCUGAAAUAUUCAAGGUCUGCAGAUCGGAAGAGCACACGU
B8: target 3 A5U,A11G (mixed)
RNA 1: CACCCGUGCAAAAUUGCAGGGGUCUAAAACGACCUGAAUAUUUCAGAUCAAA
RNA 2: GGGAAUGGAUCCACAUCUACGAAUUCGUUUUUGAUCUGAAGUAUUCUGGUCUGCAGAUCGGAAGAGCACACGU
B9: target 3 insG 3' of 8,insC 3' of 7 (mixed)
RNA 1: CACCCGUGCAAAAUUGCAGGGGUCUAAAACGACCUGAAUAUUUCAGAUCAAA
RNA 2: GGGAAUGGAUCCACAUCUACGAAUUCGUUUUUGAUCUGAAAUAUGUCCAGGUCUGCAGAUCGGAAGAGCACACGU
B10: target 3 insC 3' of 8,insG 3' of 5 (mixed)
RNA 1: CACCCGUGCAAAAUUGCAGGGGUCUAAAACGACCUGAAUAUUUCAGAUCAAA
RNA 2: GGGAAUGGAUCCACAUCUACGAAUUCGUUUUUGAUCUGAAAUAUCUCAGGGUCUGCAGAUCGGAAGAGCACACGU
B11: target 3 insA 3' of 22,insU 3' of 16 (mixed)
RNA 1: CACCCGUGCAAAAUUGCAGGGGUCUAAAACGACCUGAAUAUUUCAGAUCAAA
RNA 2: GGGAAUGGAUCCACAUCUACGAAUUCGUUUAUUGAUCUUGAAAUAUUCAGGUCUGCAGAUCGGAAGAGCACACGU
B12: target 3 U2A,G4U (mixed)
RNA 1: CACCCGUGCAAAAUUGCAGGGGUCUAAAACGACCUGAAUAUUUCAGAUCAAA
RNA 2: GGGAAUGGAUCCACAUCUACGAAUUCGUUUUUGAUCUGAAAUAUUCAUGACUGCAGAUCGGAAGAGCACACGU
B13: target 3 G3A,G4A (mixed)
RNA 1: CACCCGUGCAAAAUUGCAGGGGUCUAAAACGACCUGAAUAUUUCAGAUCAAA
RNA 2: GGGAAUGGAUCCACAUCUACGAAUUCGUUUUUGAUCUGAAAUAUUCAAAUCUGCAGAUCGGAAGAGCACACGU
B14: target 3 G4C,U7A (mixed)
RNA 1: CACCCGUGCAAAAUUGCAGGGGUCUAAAACGACCUGAAUAUUUCAGAUCAAA
RNA 2: GGGAAUGGAUCCACAUCUACGAAUUCGUUUUUGAUCUGAAAUAUACACGUCUGCAGAUCGGAAGAGCACACGU
B15: target 3 C6U,U8G (mixed)
RNA 1: CACCCGUGCAAAAUUGCAGGGGUCUAAAACGACCUGAAUAUUUCAGAUCAAA
RNA 2: GGGAAUGGAUCCACAUCUACGAAUUCGUUUUUGAUCUGAAAUAGUUAGGUCUGCAGAUCGGAAGAGCACACGU
B16: target 3 insG 3' of 5,insG 3' of 2 (mixed)
RNA 1: CACCCGUGCAAAAUUGCAGGGGUCUAAAACGACCUGAAUAUUUCAGAUCAAA
RNA 2: GGGAAUGGAUCCACAUCUACGAAUUCGUUUUUGAUCUGAAAUAUUCAGGGUGCUGCAGAUCGGAAGAGCACACGU
B17: target 3 G4U,U21A (mixed)
RNA 1: CACCCGUGCAAAAUUGCAGGGGUCUAAAACGACCUGAAUAUUUCAGAUCAAA
RNA 2: GGGAAUGGAUCCACAUCUACGAAUUCGUUUAUGAUCUGAAAUAUUCAUGUCUGCAGAUCGGAAGAGCACACGU
B18: target 3 insA 3' of 10,insA 3' of 7 (mixed)
RNA 1: CACCCGUGCAAAAUUGCAGGGGUCUAAAACGACCUGAAUAUUUCAGAUCAAA
RNA 2: GGGAAUGGAUCCACAUCUACGAAUUCGUUUUUGAUCUGAAAUAAUUACAGGUCUGCAGAUCGGAAGAGCACACGU
B19: target 3 insU 3' of 5,insG 3' of 2 (mixed)
RNA 1: CACCCGUGCAAAAUUGCAGGGGUCUAAAACGACCUGAAUAUUUCAGAUCAAA
RNA 2: GGGAAUGGAUCCACAUCUACGAAUUCGUUUUUGAUCUGAAAUAUUCAUGGUGCUGCAGAUCGGAAGAGCACACGU
B20: target 3 insC 3' of 7 (mixed)
RNA 1: CACCCGUGCAAAAUUGCAGGGGUCUAAAACGACCUGAAUAUUUCAGAUCAAA
RNA 2: GGGAAUGGAUCCACAUCUACGAAUUCGUUUUUGAUCUGAAAUAUUCCAGGUCUGCAGAUCGGAAGAGCACACGU
B21: target 3 U2A,U20C (mixed)
RNA 1: CACCCGUGCAAAAUUGCAGGGGUCUAAAACGACCUGAAUAUUUCAGAUCAAA
RNA 2: GGGAAUGGAUCCACAUCUACGAAUUCGUUUUCGAUCUGAAAUAUUCAGGACUGCAGAUCGGAAGAGCACACGU
B22: target 3 insG 3' of 5,insC 3' of 5 (mixed)
RNA 1: CACCCGUGCAAAAUUGCAGGGGUCUAAAACGACCUGAAUAUUUCAGAUCAAA
RNA 2: GGGAAUGGAUCCACAUCUACGAAUUCGUUUUUGAUCUGAAAUAUUCAGCGGUCUGCAGAUCGGAAGAGCACACGU
B23: target 3 G3A,U22A (mixed)
RNA 1: CACCCGUGCAAAAUUGCAGGGGUCUAAAACGACCUGAAUAUUUCAGAUCAAA
RNA 2: GGGAAUGGAUCCACAUCUACGAAUUCGUUAUUGAUCUGAAAUAUUCAGAUCUGCAGAUCGGAAGAGCACACGU
B24: target 3 insG 3' of 9,insU 3' of 3 (mixed)
RNA 1: CACCCGUGCAAAAUUGCAGGGGUCUAAAACGACCUGAAUAUUUCAGAUCAAA
RNA 2: GGGAAUGGAUCCACAUCUACGAAUUCGUUUUUGAUCUGAAAUAGUUCAGGUUCUGCAGAUCGGAAGAGCACACGU
B25: target 3 U2G,U10G (mixed)
RNA 1: CACCCGUGCAAAAUUGCAGGGGUCUAAAACGACCUGAAUAUUUCAGAUCAAA
RNA 2: GGGAAUGGAUCCACAUCUACGAAUUCGUUUUUGAUCUGAAAGAUUCAGGGCUGCAGAUCGGAAGAGCACACGU
B26: target 3 insA 3' of 19 (mixed)
RNA 1: CACCCGUGCAAAAUUGCAGGGGUCUAAAACGACCUGAAUAUUUCAGAUCAAA
RNA 2: GGGAAUGGAUCCACAUCUACGAAUUCGUUUUUGAAUCUGAAAUAUUCAGGUCUGCAGAUCGGAAGAGCACACGU
B27: target 3 G3A,G4U (mixed)
RNA 1: CACCCGUGCAAAAUUGCAGGGGUCUAAAACGACCUGAAUAUUUCAGAUCAAA
RNA 2: GGGAAUGGAUCCACAUCUACGAAUUCGUUUUUGAUCUGAAAUAUUCAUAUCUGCAGAUCGGAAGAGCACACGU
B28: target 3 del6,del8 (mixed)
RNA 1: CACCCGUGCAAAAUUGCAGGGGUCUAAAACGACCUGAAUAUUUCAGAUCAAA
RNA 2: GGGAAUGGAUCCACAUCUACGAAUUCGUUUUUGAUCUGAAAUAUAGGUCUGCAGAUCGGAAGAGCACACGU

molecular target: T1, EsCas13d, nuclease-dead; assay: crRNA (strand 1, pre-loaded); Mg2+; 40 mM Tris-HCl pH 7.5, 150 mM NaCl, 6 mM MgCl2, 1 mM DTT, 0.1% Tween-20, 0.2 mg/ml BSA; 25 C; 10 min per concentration, then washed; details: tags: His6-TwinStrep-SUMO cleaved; N-terminal SNAP kept (SNAP-Surface 488); label: 3' end held by stalled T7 RNA polymerase

Compared with B1, B2 is 2-fold higher in Kd: 13.5 ± 0.5 nM for the first, 27.2 ± 1.4 nM for the second.

B3 and B4 are within error of each other in Kd: 35.5 ± 4 nM for the first, 45.2 ± 11.2 nM for the second.

Going from B5 to B6, the Kd rises from 15.7 ± 1.25 nM to 110 ± 55 nM (7-fold).

B7 and B8 are within error of each other in Kd: 105 ± 43.5 nM for the first, 100 ± 45 nM for the second.

Going from B9 to B10, the Kd rises from 57 ± 9 nM to 120 ± 50 nM (2.1-fold).

Compared with B11, B12 is 36-fold lower in Kd: 71 ± 14 nM for the first, 1.98 ± 0.2 nM for the second. The second binds more tightly here.

Compared with B13, B14 is 3.2-fold higher in Kd: 8.7 ± 0.75 nM for the first, 27.6 ± 3.05 nM for the second.

Compared with B15, B16 is 1.7-fold lower in Kd: 44.1 ± 3.35 nM for the first, 26.6 ± 4.1 nM for the second. The second binds more tightly here.

Going from B17 to B18, the Kd rises from 20.6 ± 2.15 nM to 52 ± 8 nM (2.5-fold).

Compared with B19, B20 is 13-fold higher in Kd: 6.95 ± 1 nM for the first, 90.5 ± 20.5 nM for the second. The first binds more tightly here.

First: B21
Second: B22
The Kd of the first is 2.3-fold higher: 74.5 ± 24 nM for the first, 32.7 ± 4.05 nM for the second.

B23 and B24 are within error of each other in Kd: 47 ± 10.5 nM for the first, 43.5 ± 7 nM for the second.

B25 and B26 are within 1.5-fold of each other in Kd: about 105 nM for the first, 83 ± 21.5 nM for the second.

Going from B27 to B28, the Kd rises from 8.95 ± 0.95 nM to 70.5 ± 11 nM (7.9-fold). The first binds more tightly here.
